Experimental data from PMC12446779, “Structural basis of transglucosylation in dextran dextrinase, a homolog of anomer-inverting GH15 glucoside hydrolases” (The Journal of Biological Chemistry, 2025).

Target: Gluconobacter oxydans dextran dextrinase Δ382C (Met1–Ser902) (Gluconobacter oxydans)
Assay: SEC; gel filtration of purified Δ382C (Fig. S8); conditions not told in the text shown

stoichiometry N: 2
Substance: Gluconobacter oxydans dextran dextrinase Δ382C (Met1–Ser902) (enzyme)
